From publication doi:10.1101/2021.08.12.455998 come the findings set out here.

Test [1] addresses empty disulfide-stabilized HLA-A*02:01 molecule (HLA-A*02:01(Y84C/A139C) heavy chain with beta-2 microglobulin) (human). Kind of test: native MS.
Test [2] shares this target. Kind of test: nDSF thermal shift. Background: DSF heats the sample and reads unfolding from a dye or from intrinsic fluorescence.

B1: MV5 (peptide)
peptide: MVATV
As a reminder, the stoichiometry N is the number of molecules, sites or subunits per partner or assembly. Consider B1, for which the stoichiometry N in test [1] was 2.

B2: GV9 (peptide)
peptide: GLGGGGGGV
In test [1], B2 had a percent of dsA2 as dsA2/pep (AUC) at 10 V of 43%. Further, in test [2], the ΔTm is 6.4 K.

B3: NT8 (peptide)
peptide: NLVPMVAT
Broadly, the Kd is the concentration at which binding is half-saturated. The low end stands for higher affinity, the high end for lower affinity. In the case of B3, the Kd in test [1] was found to be 30 µM.

B4: LV8 (peptide)
peptide: LVPMVATV
B4: the dissociation constant (Kd) in test [1] was 0.07 µM. Also, the ΔTm in test [2] was found to be 11.6 K.
